Assay [1] deals with recombinant chicken leptin binding domain (chLBD) (chicken). In words: affinity for chLBD (method not given; compared with the SPR value of WT human leptin).
In assay [2] the target is long form of human leptin receptor (human) (UniProt P48357). In words: cell-based or functional assay.
Assay [3] shares this target. The experiment in a line: radioreceptor assay, homogenate from 1.75x10^6 BAF/3 cells with human leptin receptor per tube.
Target sequence in this assay (P48357 22-1165 limits assumed, form in doubt): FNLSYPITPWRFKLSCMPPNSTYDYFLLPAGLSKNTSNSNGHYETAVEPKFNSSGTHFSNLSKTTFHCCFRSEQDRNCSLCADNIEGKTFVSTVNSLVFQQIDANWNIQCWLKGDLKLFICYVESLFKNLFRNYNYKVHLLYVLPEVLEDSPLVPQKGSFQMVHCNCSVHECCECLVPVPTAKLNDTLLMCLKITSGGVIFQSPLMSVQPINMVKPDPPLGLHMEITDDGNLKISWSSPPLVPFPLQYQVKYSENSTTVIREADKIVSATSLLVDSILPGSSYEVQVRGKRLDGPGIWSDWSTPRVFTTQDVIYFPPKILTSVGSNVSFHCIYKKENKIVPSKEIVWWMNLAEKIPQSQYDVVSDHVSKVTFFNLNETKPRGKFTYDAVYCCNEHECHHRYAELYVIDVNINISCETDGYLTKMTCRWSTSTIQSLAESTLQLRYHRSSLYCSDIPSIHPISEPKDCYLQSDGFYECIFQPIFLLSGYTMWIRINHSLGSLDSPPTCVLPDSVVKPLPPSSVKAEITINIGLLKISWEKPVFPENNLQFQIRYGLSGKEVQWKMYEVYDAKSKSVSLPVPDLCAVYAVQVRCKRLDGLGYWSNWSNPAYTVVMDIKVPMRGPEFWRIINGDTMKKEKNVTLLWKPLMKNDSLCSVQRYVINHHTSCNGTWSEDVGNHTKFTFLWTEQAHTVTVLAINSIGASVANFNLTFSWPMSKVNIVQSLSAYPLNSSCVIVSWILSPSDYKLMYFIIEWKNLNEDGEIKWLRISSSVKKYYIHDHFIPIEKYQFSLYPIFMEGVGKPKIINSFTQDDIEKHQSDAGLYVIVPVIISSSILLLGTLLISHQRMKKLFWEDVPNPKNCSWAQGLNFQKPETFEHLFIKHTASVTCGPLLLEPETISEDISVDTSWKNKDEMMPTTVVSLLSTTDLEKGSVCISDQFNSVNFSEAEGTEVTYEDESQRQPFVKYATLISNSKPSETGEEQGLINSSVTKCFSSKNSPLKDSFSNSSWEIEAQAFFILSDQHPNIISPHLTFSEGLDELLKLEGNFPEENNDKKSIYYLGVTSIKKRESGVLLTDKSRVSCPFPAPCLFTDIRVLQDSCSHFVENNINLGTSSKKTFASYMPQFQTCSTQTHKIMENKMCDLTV
Assay [4] shares this target. In words: radioreceptor competition assay against iodinated leptin, homogenate of BAF/3 cells with long form of human leptin receptor, average of two experiments.
Target sequence in this assay (P48357 22-1165 limits assumed, form in doubt): as above
Assay [5] deals with recombinant chicken leptin binding domain (chLBD) (chicken). In words: SPR (Biacore 3000), leptin amine-coupled to CM5 chip, soluble chLBD as analyte, 25 C, 1:1 Langmuir fit, mean of 2 experiments.

Turning to “human leptin L39A/D40A/F41A/I42A/S120A/T121A mutant (from UniProt P41159 22-167) (ligand)”, the Kd in assay [1] was determined as 26.9 nM. In addition, the IC50 for inhibition in the Baf/3 bioassay in assay [2] turned out to be 14.3 nM.

With “human leptin S120A/T121A mutant (from UniProt P41159 22-167) (ligand)”, in assay [1], the Kd worked out at 29.5 nM. In assay [2], the IC50 for inhibition in the Baf/3 bioassay is 165 nM and the IC50 for inhibition in the Baf/3 bioassay, fold against L39A/D40A/F41A or L39A/D40A/F41A/I42A worked out at 150 fold.

“wild-type (WT) human leptin, recombinant (from UniProt P41159 22-167) (ligand)” returned a specific binding in assay [3] of 6 to 7%. Further, in assay [4], the IC50 was found to be 5.33 nM. The substance further displayed an EC50 in Baf/3 bioassay (proliferation of BAF/3 cells transfected with the long form of human leptin receptor, MTT) in assay [2] of 0.022 nM. In addition, in assay [5], the dissociation constant Kd stood at 28.8 nM, the koff amounted to 0.0043 s⁻¹ and the kon came out at 149000 M⁻¹ s⁻¹.

“wild-type (WT) ovine leptin, recombinant (from UniProt Q28603 1-146) (ligand)”: the IC50 in assay [4] was 1.47 nM. The substance further registered an EC50 in Baf/3 bioassay (proliferation of BAF/3 cells transfected with the long form of human leptin receptor, MTT) in assay [2] of 0.037 nM. For the same substance, in assay [5], the Kd is 22.8 nM, the off-rate constant (koff) turned out to be 0.0037 s⁻¹ and the kon came to 162000 M⁻¹ s⁻¹.

For the origin of these results see patent publication US20060154859A1.
